Laboratory results taken from patent publication US20250000976A1 (NATIONAL RESEARCH COUNCIL OF CANADA, published 2025).

T1: full-length hBCMA-ECD displayed on yeast (Aga2-HA-(hBCMA)-MYC) (human, UniProt Q02223 1-54)
T1 construct: range 1-54; stands here as the molecule on which the mapped regions are counted; also called hBCMA ecto-domain (ECD); not shown: Aga2-HA N-terminal fusion partner of the pPNL6 yeast display vector; C-terminal MYC tag
T1 sequence (looked up): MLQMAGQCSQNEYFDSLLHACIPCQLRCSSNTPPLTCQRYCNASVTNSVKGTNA

T2: BCMA_B14x Gly6_Pro23 (C21S) (human, UniProt Q02223)
T2 construct: limits and substitution as printed in the sample name
T2 yeast-displayed fusion (looked up): GQCSQNEYFDSLLHASIP

T3: BCMA_B4x Arg27_Ala54 (human, UniProt Q02223)
T3 construct: limits given in the sample name
T3 yeast-displayed fusion (looked up): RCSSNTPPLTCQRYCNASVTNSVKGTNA

T4: hBCMA fragment Gly6-Tyr40 displayed on yeast (Aga2-HA-(hBCMA)-MYC) (human, UniProt Q02223 6-40)
T4 construct: range 6-40; not shown: Aga2-HA N-terminal fusion partner of the pPNL6 yeast display vector; C-terminal MYC tag
T4 chain (looked up): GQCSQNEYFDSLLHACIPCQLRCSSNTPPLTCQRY

T5: BCMA_B8x Met1_Pro23 (human, UniProt Q02223)
T5 construct: limits given in the sample name
T5 yeast-displayed fusion (looked up): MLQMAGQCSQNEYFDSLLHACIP

T6: BCMA_B7x Met1_Tyr40 (human, UniProt Q02223)
T6 construct: limits given in the sample name
T6 yeast-displayed fusion (looked up): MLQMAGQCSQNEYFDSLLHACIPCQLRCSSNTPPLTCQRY

T7: BCMA_B20x Arg27_Ala43 (C41S) (human, UniProt Q02223)
T7 construct: limits and substitution as printed in the sample name
T7 yeast-displayed fusion (looked up): RCSSNTPPLTCQRYSNA

T8: hBCMA fragment Gly6-Pro23 displayed on yeast (Aga2-HA-(hBCMA)-MYC) (human, UniProt Q02223 6-23)
T8 construct: range 6-23; not shown: Aga2-HA N-terminal fusion partner of the pPNL6 yeast display vector; C-terminal MYC tag
T8 chain (looked up): GQCSQNEYFDSLLHACIP

T9: BCMA_B6x Met1_Ala43 (human, UniProt Q02223)
T9 construct: limits given in the sample name
T9 yeast-displayed fusion (looked up): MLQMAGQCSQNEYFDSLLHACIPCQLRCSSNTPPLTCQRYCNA

T10: BCMA_B16x Ile22_Ala43 (C41S) (human, UniProt Q02223)
T10 construct: limits and substitution as printed in the sample name
T10 yeast-displayed fusion (looked up): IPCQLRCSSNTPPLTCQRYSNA

T11: BCMA_B19x Arg27_Ala43 (human, UniProt Q02223)
T11 construct: limits given in the sample name
T11 yeast-displayed fusion (looked up): RCSSNTPPLTCQRYCNA

T12: BCMA_B18x Ile22_Tyr40 (C37S) (human, UniProt Q02223)
T12 construct: limits and substitution as printed in the sample name
T12 yeast-displayed fusion (looked up): IPCQLRCSSNTPPLTSQRY

T13: BCMA_B10x Gly6_Ala43 (human, UniProt Q02223)
T13 construct: limits given in the sample name
T13 yeast-displayed fusion (looked up): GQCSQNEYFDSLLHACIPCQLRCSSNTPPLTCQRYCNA

T14: BCMA_B3x Ile22_Ala54 (human, UniProt Q02223)
T14 construct: limits given in the sample name
T14 yeast-displayed fusion (looked up): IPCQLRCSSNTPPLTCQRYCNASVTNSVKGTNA

T15: BCMA_B2x Gly6_Ala54 (human, UniProt Q02223)
T15 construct: limits given in the sample name
T15 yeast-displayed fusion (looked up): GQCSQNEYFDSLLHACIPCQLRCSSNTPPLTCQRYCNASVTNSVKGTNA

T16: BCMA_B15x Ile22_Ala43 (human, UniProt Q02223)
T16 construct: limits given in the sample name
T16 yeast-displayed fusion (looked up): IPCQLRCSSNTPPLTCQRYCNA

T17: BCMA_B17x Ile22_Tyr40 (human, UniProt Q02223)
T17 construct: limits given in the sample name
T17 yeast-displayed fusion (looked up): IPCQLRCSSNTPPLTCQRY

T18: BCMA_B5x Gln38_Ala54 (human, UniProt Q02223)
T18 construct: limits given in the sample name
T18 yeast-displayed fusion (looked up): QRYCNASVTNSVKGTNA

T19: BCMA_B21x Arg27_Tyr40 (human, UniProt Q02223)
T19 construct: limits given in the sample name
T19 yeast-displayed fusion (looked up): RCSSNTPPLTCQRY

T20: BCMA_B22x Arg27_Tyr40 (C37S) (human, UniProt Q02223)
T20 construct: limits and substitution as printed in the sample name
T20 yeast-displayed fusion (looked up): RCSSNTPPLTSQRY

B1: hBCMA-E7 (VHH)
VHH: QVQLVESGGGLVQTGDSLRLACTISGRATDHFVMAWFRRAPGKEREYVATRVWSGGSPYYLDSVKGRFAIAIDNAKNTAYLQMNNLKPEDTAVYYCAATKDIMSRSYDYWGLGTQVTVSS
modifications: single biotin on the C-terminal AviTag
notes: Llama VHH made in E. coli BL21(DE3), IMAC purified, monomeric SEC fraction used; also called VHH-E7; VHH # 1-B1; not shown: C-terminal His tag and AviTag biotinylation signal from pMRO vector
B2: hBCMA-H2 (VHH)
VHH: QVKAEESGGGLVRPGDSLRLTCTISGRTSNNFVMAWFRRTPGKEREYVATRVWSGSTPYYHDSVKGRFTISIDDDKNTAYLQMNSLKPEDTAVYYCAATKDIMSRSYDYWGLGTQVTVSS
modifications: single biotin on the C-terminal AviTag
notes: also called VHH-H2; not shown: C-terminal His tag and AviTag biotinylation signal from pMRO vector
B3: hBCMA-H4 (VHH)
VHH: QVQLVESGGGLVQPGGSLRLSCAASGDSFGAYAMGWYRQAPGKQRELVAAISSAGNTFYRDSVKGRFTVSRNNAKNAMYLQMDRLKPEDTAVYQCNGAPWADEPVKVWNWGLGTQVTVSS
modifications: single biotin on the C-terminal AviTag
notes: also called VHH-H4; not shown: C-terminal His tag and AviTag biotinylation signal from pMRO vector

Each binder was assayed against T1, full-length hBCMA-ECD displayed on … (assay: yeast cell ELISA, sample BCMA_B1x Met1_Ala54).
Description: (§1) The YSD vector (pPNL6) was from The Pacific Northwest National Laboratory, USA. […] The HRP activity was assayed with substrate TMB (tetramethyl benzidine) according to the manufacture's conditions and read at OD₄₅₀.
(§2) The assays were performed as described in the Materials and Method, and OD₄₅₀ was measured. Note that OD₄₅₀ reads equal or less than 0.100 were scored as zero for clarity.

| OD450 | Binder |
| --- | --- |
| 2.52 | B1 |
| 2.12 | B2 |
| 2.78 | B3 |

Target: T2, BCMA_B14x Gly6_Pro23 (C21S)
Experiment: yeast cell ELISA, sample BCMA_B14x Gly6_Pro23 (C21S)
Description: as §1, §2

| binding result | Binder |
| --- | --- |
| no binding | B1 |
| no binding | B2 |
| no binding | B3 |

Target: T3, BCMA_B4x Arg27_Ala54
Experiment: yeast cell ELISA, sample BCMA_B4x Arg27_Ala54
Description: as §1, §2

| binding result | Binder |
| --- | --- |
| no binding | B1 |
| no binding | B2 |
| no binding | B3 |

Target: T4, hBCMA fragment Gly6-Tyr40 displayed on …
Experiment: yeast cell ELISA, sample BCMA_B11x Gly6_Tyr40
Description: as §1, §2

| OD450 | Binder |
| --- | --- |
| 3.57 | B1 |
| 3.5 | B2 |
| 2.42 | B3 |

Target: T5, BCMA_B8x Met1_Pro23
Experiment: yeast cell ELISA, sample BCMA_B8x Met1_Pro23
Description: as §1, §2

| OD450 | binding result | Binder |
| --- | --- | --- |
| 2.45 | – | B1 |
| 2.89 | – | B2 |
| – | no binding | B3 |

Target: T6, BCMA_B7x Met1_Tyr40
Experiment: yeast cell ELISA, sample BCMA_B7x Met1_Tyr40
Description: as §1, §2

| OD450 | Binder |
| --- | --- |
| 2.64 | B1 |
| 3.02 | B2 |
| 1.39 | B3 |

Target: T7, BCMA_B20x Arg27_Ala43 (C41S)
Experiment: yeast cell ELISA, sample BCMA_B20x Arg27_Ala43 (C41S)
Description: as §1, §2

| binding result | Binder |
| --- | --- |
| no binding | B1 |
| no binding | B2 |
| no binding | B3 |

Target: T8, hBCMA fragment Gly6-Pro23 displayed on …
Experiment: yeast cell ELISA, sample BCMA_B12x Gly6_Pro23
Description: as §1, §2

| OD450 | binding result | Binder |
| --- | --- | --- |
| 2.39 | – | B1 |
| 2.82 | – | B2 |
| – | no binding | B3 |

Target: T9, BCMA_B6x Met1_Ala43
Experiment: yeast cell ELISA, sample BCMA_B6x Met1_Ala43
Description: as §1, §2

| OD450 | Binder |
| --- | --- |
| 2.19 | B1 |
| 2.41 | B2 |
| 2.62 | B3 |

Target: T10, BCMA_B16x Ile22_Ala43 (C41S)
Experiment: yeast cell ELISA, sample BCMA_B16x Ile22_Ala43 (C41S)
Description: as §1, §2

| binding result | Binder |
| --- | --- |
| no binding | B1 |
| no binding | B2 |
| no binding | B3 |

Target: T11, BCMA_B19x Arg27_Ala43
Experiment: yeast cell ELISA, sample BCMA_B19x Arg27_Ala43
Description: as §1, §2

| binding result | Binder |
| --- | --- |
| no binding | B1 |
| no binding | B2 |
| no binding | B3 |

Target: T12, BCMA_B18x Ile22_Tyr40 (C37S)
Experiment: yeast cell ELISA, sample BCMA_B18x Ile22_Tyr40 (C37S)
Description: as §1, §2

| binding result | Binder |
| --- | --- |
| no binding | B1 |
| no binding | B2 |
| no binding | B3 |

Target: T13, BCMA_B10x Gly6_Ala43
Experiment: yeast cell ELISA, sample BCMA_B10x Gly6_Ala43
Description: as §1, §2

| OD450 | Binder |
| --- | --- |
| 1.8 | B1 |
| 2.6 | B2 |
| 2.23 | B3 |

Target: T14, BCMA_B3x Ile22_Ala54
Experiment: yeast cell ELISA, sample BCMA_B3x Ile22_Ala54
Description: as §1, §2

| binding result | Binder |
| --- | --- |
| no binding | B1 |
| no binding | B2 |
| no binding | B3 |

Target: T15, BCMA_B2x Gly6_Ala54
Experiment: yeast cell ELISA, sample BCMA_B2x Gly6_Ala54
Description: as §1, §2

| OD450 | Binder |
| --- | --- |
| 2.92 | B1 |
| 2.92 | B2 |
| 2.16 | B3 |

Target: T16, BCMA_B15x Ile22_Ala43
Experiment: yeast cell ELISA, sample BCMA_B15x Ile22_Ala43
Description: as §1, §2

| binding result | Binder |
| --- | --- |
| no binding | B1 |
| no binding | B2 |
| no binding | B3 |

Target: T17, BCMA_B17x Ile22_Tyr40
Experiment: yeast cell ELISA, sample BCMA_B17x Ile22_Tyr40
Description: as §1, §2

| binding result | Binder |
| --- | --- |
| no binding | B1 |
| no binding | B2 |
| no binding | B3 |

Target: T18, BCMA_B5x Gln38_Ala54
Experiment: yeast cell ELISA, sample BCMA_B5x Gln38_Ala54
Description: as §1, §2

| binding result | Binder |
| --- | --- |
| no binding | B1 |
| no binding | B2 |
| no binding | B3 |

Target: T19, BCMA_B21x Arg27_Tyr40
Experiment: yeast cell ELISA, sample BCMA_B21x Arg27_Tyr40
Description: as §1, §2

| binding result | Binder |
| --- | --- |
| no binding | B1 |
| no binding | B2 |
| no binding | B3 |

Target: T20, BCMA_B22x Arg27_Tyr40 (C37S)
Experiment: yeast cell ELISA, sample BCMA_B22x Arg27_Tyr40 (C37S)
Description: as §1, §2

| binding result | Binder |
| --- | --- |
| no binding | B1 |
| no binding | B2 |
| no binding | B3 |
